# Measured values taken from article PMC2823633 (The Journal of neuroscience : the official journal of the …, 2009).
# T1: GST fusion of the Mint1 PDZ-2 domain (740-825) (UniProt Q02410 740-825, Cys 742 replaced with Ser)
# T1 sequence (looked up): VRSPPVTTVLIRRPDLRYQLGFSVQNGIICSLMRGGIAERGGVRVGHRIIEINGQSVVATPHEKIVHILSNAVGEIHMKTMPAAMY
# B1: synthetic artificial peptide ASYCKQRNIVWL (positive control) (peptide)
# peptide: ASYCKQRNIVWL
# B2: synthetic artificial peptide GHLSESSQVRWL (positive control) (peptide)
# peptide: GHLSESSQVRWL
# B3: doubly substituted peptide GVPARTQVAVAV (peptide)
# peptide: GVPARTQVAVAV
# B4: synthetic artificial peptide TAKCAARFPTWL (peptide)
# peptide: TAKCAARFPTWL
# B5: synthetic artificial peptide GVPARTQVEVWV (peptide)
# peptide: GVPARTQVEVWV
# Target: T1, GST fusion of the Mint1 PDZ-2 domain …
# Test: ELISA
row,binding result,Binder
1,binds,B1
2,binds,B2
3,binds,B3
4,binds,B4
5,binds,B5
